The test deals with T1, MYO10 motor domain 1-741 (Homo sapiens, UniProt Q9HD67).
T1 chain: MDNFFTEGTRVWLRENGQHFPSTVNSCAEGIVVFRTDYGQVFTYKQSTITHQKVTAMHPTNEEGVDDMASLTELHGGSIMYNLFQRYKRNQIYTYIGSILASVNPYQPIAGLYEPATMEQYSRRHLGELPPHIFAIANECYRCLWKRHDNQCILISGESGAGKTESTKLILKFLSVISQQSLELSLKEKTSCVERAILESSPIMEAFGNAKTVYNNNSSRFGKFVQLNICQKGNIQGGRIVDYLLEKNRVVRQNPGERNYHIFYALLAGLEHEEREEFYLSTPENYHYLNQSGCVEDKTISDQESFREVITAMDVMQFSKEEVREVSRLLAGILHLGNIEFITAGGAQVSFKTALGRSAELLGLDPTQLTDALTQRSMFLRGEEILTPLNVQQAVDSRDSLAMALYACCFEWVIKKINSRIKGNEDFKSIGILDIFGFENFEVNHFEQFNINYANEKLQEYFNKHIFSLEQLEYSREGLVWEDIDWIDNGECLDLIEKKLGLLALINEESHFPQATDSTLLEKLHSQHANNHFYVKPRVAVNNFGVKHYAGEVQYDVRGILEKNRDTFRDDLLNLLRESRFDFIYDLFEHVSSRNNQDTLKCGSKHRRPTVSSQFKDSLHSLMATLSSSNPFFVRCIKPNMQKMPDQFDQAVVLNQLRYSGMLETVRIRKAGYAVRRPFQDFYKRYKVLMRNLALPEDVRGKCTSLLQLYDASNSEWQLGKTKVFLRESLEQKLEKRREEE
Description: MST.

B1: CCT8 (protein)
chain: ALHVPKAPGFAQMLKEGAKHFSGLEEAVYRNIQACKELAQTTRTAYGPNGMNKMVINHLEKLFVTNDAATILRELEVQHPAAKMIVMASHMQEQEVGDGTNFVLVFAGALLELAEELLRIGLSVSEVIEGYEIACRKAHEILPNLVCCSAKNLRDIDEVSSLLRTSIMSKQYGNEVFLAKLIAQACVSIFPDSGHFNVDNIRVCKILGSGISSSSVLHGMVFKKETEGDVTSVKDAKIAVYSCPFDGMITETKGTVLIKTAEELMNFSKGEENLMDAQVKAIADTGANVVVTGGKVADMALHYANKYNIMLVRLNSKWDLRRLCKTVGATALPRLTPPVLEEMGHCDSVYLSEVGDTQVVVFKHEKEDGAISTIVLRGSTDNLMDDIERAVDDGVNTFKVLTRDKRLVPGGGATEIELAKQITSYGETCPGLEQYAIKKFAEAFEAIPRALAENSGVKANEVISKLYAVHQEGNKNVGLDIEAEVPAVKDMLEAGILDTYLGKYWAIKLATNAAVTVLRVDQIIMAKPAGGPKPPSGKKDWDDDQND
As usually defined, the Kd is the free concentration of one partner at which half of the binding sites on the other are occupied at equilibrium, for simple one-to-one binding. Low readings indicate higher affinity, high ones lower affinity. Turning to B1, the dissociation constant Kd amounted to 1160 nM.

Values taken from article PMC13676896 (2026).
